Results on one protein are retold here after publication PMC7717906 (eLife, 2020).

For orientation: stoichiometry N means a count of units in the complex or per binding partner.

This data set deals with the molecule itself. Kind of data set: SEC. In general terms: Size exclusion chromatography separates by hydrodynamic size, large species first.

B1: His-MoOsm1 (enzyme)
chain: MAEFVRAQIFGTTFEITSRYSDLQPVGMGAFGLVCSARDQLTNQNVAIKKIMKPFSTPVLAKRTYRELKLLKHLKHENVISLSDIFISPLEDIYFVTELLGTDLHRLLTSRPLEKQFIQYFLYQIMRGLKYVHSAGVVHRDLKPSNILVNENCDLKICDFGLARIQDPQMTGYVSTRYYRAPEIMLTWQKYDVEVDIWSAGCIFAEMLEGKPLFPGKDHVNQFSIITELLGTPPDDVINTIASENTLRFVKSLPKRERQPLKNKFKNADPSAIDLLERMLVFDPKKRITATEALAHEYLTPYHDPTDEPIAEEKFDWSFNDADLPVDTWKIMMYSEILDYHNAEAGMQQMDDQFTGQ
Regarding B1, the “stoichiometry N” value turned out to be 2.
